This passage reports fold increase of the PLA signal after serum starvation or serum starvation + H2O2, against control cells results from paper PMC7865483.

For the assay, the target named is EE-tagged Pank1β (pantothenate kinase 1β), stably overexpressed in HEK293 cells (UniProt Q8TE04). Kind of assay: proximity ligation; in situ PLA (Duolink) on fixed HEK293/Pank1β cells with anti-Pank1 and anti-CoAsy, anti-PPCS or anti-PPCDC antibodies; exponentially growing cells in full medium; for Pank1/CoAsy also after 16 h serum starvation, serum starvation + 500 μM H2O2 for 10 min, and serum starvation + 1 μM insulin for 3 h or 6 h.
Sequence of EE-tagged Pank1β (pantothenate kinase 1β), stably overexpressed in HEK293 cells (Q8TE04 other isoform, or with tags, fused parts or gaps): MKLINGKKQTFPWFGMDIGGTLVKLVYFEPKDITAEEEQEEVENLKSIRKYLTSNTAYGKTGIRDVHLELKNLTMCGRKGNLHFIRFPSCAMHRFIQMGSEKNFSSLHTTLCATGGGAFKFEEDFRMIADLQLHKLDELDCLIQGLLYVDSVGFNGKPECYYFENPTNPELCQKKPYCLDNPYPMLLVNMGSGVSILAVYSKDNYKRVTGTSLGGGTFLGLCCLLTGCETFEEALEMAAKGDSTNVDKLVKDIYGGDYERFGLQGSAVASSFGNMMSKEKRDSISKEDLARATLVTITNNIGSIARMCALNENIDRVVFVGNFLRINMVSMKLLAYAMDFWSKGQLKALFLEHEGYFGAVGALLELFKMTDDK

As to “CoA synthase (CoAsy) (from UniProt Q13057 1-564) (enzyme)”, the fold increase of the PLA signal after serum starvation or serum starvation + H2O2, against control cells came to 2 fold.
